From patent publication US20190263905A1 (DINONA, published 2019)
Residue numbers refer to the chain shown, from its start.

T1: CEACAM1 antigen (Sino Biological, Inc.) (UniProt P13688 35-428)
T1 construct: Bought antigen coated on the ELISA plate; construct not described; also called CEACAM1 (CD66a) antigen; CD66a
T1 sequence (looked up): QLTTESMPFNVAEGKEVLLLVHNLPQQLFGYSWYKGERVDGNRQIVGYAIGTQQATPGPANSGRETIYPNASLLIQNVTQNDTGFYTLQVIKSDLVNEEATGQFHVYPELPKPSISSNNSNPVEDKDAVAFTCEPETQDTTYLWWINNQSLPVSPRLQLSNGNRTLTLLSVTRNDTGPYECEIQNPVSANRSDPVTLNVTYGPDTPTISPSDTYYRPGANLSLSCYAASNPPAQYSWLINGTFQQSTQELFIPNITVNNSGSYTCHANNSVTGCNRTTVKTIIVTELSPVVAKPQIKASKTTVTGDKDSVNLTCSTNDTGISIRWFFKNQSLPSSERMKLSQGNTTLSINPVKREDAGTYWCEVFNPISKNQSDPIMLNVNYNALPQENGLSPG

T2: Antigen CD66c (CEACAM6; Sino Biological, Inc.) (UniProt P40199 35-320)
T2 construct: Bought antigen coated on the ELISA plate; construct not described; also called CD66c antigen; CECACAM6
T2 sequence (looked up): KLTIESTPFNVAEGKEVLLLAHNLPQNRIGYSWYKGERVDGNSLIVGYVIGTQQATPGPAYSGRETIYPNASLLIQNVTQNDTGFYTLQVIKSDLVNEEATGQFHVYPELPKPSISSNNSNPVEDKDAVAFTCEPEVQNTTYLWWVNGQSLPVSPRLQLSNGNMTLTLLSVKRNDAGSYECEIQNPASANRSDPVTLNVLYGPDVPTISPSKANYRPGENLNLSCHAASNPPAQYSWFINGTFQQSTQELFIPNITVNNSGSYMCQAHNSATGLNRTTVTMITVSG

T3: CD66c (CEACAM6) on CD66c-positive A549 non-small-cell lung cancer cells (UniProt P40199 35-320, limits assumed)
T3 construct: whole, on cells; also called CD66c antigen; NCA-90
T3 sequence (looked up): T2 sequence (looked up)

B1: recombinant humanized anti-CD66c antibody Protein ID 3058 (Vk8 + VH11) (antibody, human IgG1, V domains shown)
VH: QVQLVQSGAEVKKPGASVKISCKASGYSFTDYTMHWVKQAPGQNLEWIGLINPFGGSTSYAQKFKGRVTMTRDTSTNTAYMELSRLRSDDTAVYYCVRGDPVRHYYALAYWGQGTLVTVSS
VL: DIQMTQSPSTLSASVGDRVTITCRASENVYGTLNWYQRKPGKAPKLLIYGATNLADGMPSRFSGSGSGTEYTLTISSLQPDDFATYYCQNVLSAPYTFGGGTKLEIK
notes: also called hu 3058; #86
B2: recombinant humanized anti-CD66c antibody Protein ID 3007 (Vk7 + VH6) (antibody, human IgG1, V domains shown)
VH: QVQLVQSGAEVKKPGASMKISCKASGYSFTDYTMNWVKQAPGQNLEWIGLINPFHGGTVSNQRFKVKATLTVDVSTNTAYMELSRLRSDDTAVYYCVRGDPVRHYYALAYWGQGTLVTVSS
VL: B1 VL with R24G, M58V
notes: also called hu 3007; #43
B3: recombinant humanized anti-CD66c antibody Protein ID 2938 (Vk5 + VH7) (antibody, human IgG1, V domains shown)
VH: B2 VH with K38R, N44G
VL: B1 VL with R24G, N34A, M58V, T69R
notes: also called hu 2938
B4: recombinant humanized anti-CD66c antibody Protein ID 3043 (Vk8 + VH6) (antibody, human IgG1, V domains shown)
VH: B2 VH
VL: B1 VL
notes: also called hu 3043; #71
B5: anti-CD66c chimeric antibody 8F5 (antibody, human IgG1, V domains shown)
VH: EVQLQQSGPELVKPGASMKISCKASGYSFTDYTMNWVKQSHGKNLEWIGLINPFHGGTVSNQRFKVKATLTVDVSSNTAYMELLSLTSDDSAVYYCVRGDPVRHYYALAYWGQGTSVTVSS
VL: DIQMTQSPASLSASVGETVTITCGASENVYGTLNWYQRKQGKSPQLLIYGATNLADGMSSRFSGSGSGRQYSLKISSLHPDDVATYYCQNVLSAPYTFGGGTKLEII
notes: also called chimeric 8F5 antibody; chi 8F5

How the values were obtained:
[1] = biological target: T1, CEACAM1 antigen (Sino Biological, Inc.); test: ELISA, coated CEACAM1 100 ng/well, antibody 1.52 ng/ml
Experimental: (§1) Antigen CD66c (CEACAM6; Sino Biological, Inc.) and CEACAM1 antigen (Sino Biological, Inc.) were coated on a 96-well plate at 100 ng per well and then blocked. The primary antibody was diluted serially three fold from 10 ug/ml at initial concentration and was bound at 37° C. for 1 hour, and goat anti-Human Ig-HRP conjugate (Jackson ImmunoResearch) as a secondary antibody was diluted 1:10,000 and incubated at 37° C. for 30 minutes. The washing was carried out at three times between each step, and the TMB reaction was performed, stopped with 1N H₂SO₄ solution at the same amount of TMB solution (100 ul) and then OD value was measured at 450 nm.
(§2) As a result of the experiment, the binding affinities to CD66c antigen of the five kinds of recombinant humanized antibodies selected from among 96 kinds of recombinant humanized antibodies are shown in FIG. 4a, Table 12, FIG. 4b and Table 13. FIG. 4a and Table 12 show the binding capacity of the antibodies to CECACAM6 CD66c) antigen, and FIG. 4b and Table 13 are the results for the CEACAM1 (CD66a) antigen.

[2] = biological target: T1, CEACAM1 antigen (Sino Biological, Inc.); test: ELISA, coated CEACAM1 100 ng/well, antibody 1111.11 ng/ml
Experimental: as §1, §2

[3] = biological target: T1, CEACAM1 antigen (Sino Biological, Inc.); test: ELISA, coated CEACAM1 100 ng/well, antibody 123.46 ng/ml
Experimental: as §1, §2

[4] = biological target: T2, Antigen CD66c (CEACAM6; Sino …); test: ELISA, coated CEACAM6 100 ng/well, antibody 0.51 ng/ml
Experimental: as §1, §2

[5] = biological target: T2, Antigen CD66c (CEACAM6; Sino …); test: ELISA, coated CEACAM6 100 ng/well, antibody 3333.33 ng/ml
Experimental: as §1, §2

[6] = biological target: T3, CD66c (CEACAM6) on CD66c-positive A549 …; test: flow cytometry on CD66c-positive A549 cells, FITC anti-human IgG
Experimental: (§3) Each expressed 96 recombinant humanized antibody was poured and reacted in a test tube containing the same amount ([…]) of CD66c-positive A549 non-small-cell lung cancer cell line at 4° C. for 30 minutes, washed with PBS, and treated with FITC-conjugated goat anti-Human IgG (DiNona Inc, Korea) was added and incubated at 4° C. for 15 minutes. After washing with PBS, the cells were analyzed with a flow cytometer (Stratedigm, S1000EXi) and the results are shown below.
(§4) Among the 96 recombinant humanized antibody candidates, eight were firstly selected based on the degree of expression, the presence of aggregation, and the degree of cell binding (Table 9 and Table 10, FIGS. 3A to 3E).

[7] = biological target: T1, CEACAM1 antigen (Sino Biological, Inc.); test: ELISA, coated CEACAM1 100 ng/well, antibody 3333.33 ng/ml
Experimental: as §1, §2

[8] = biological target: T1, CEACAM1 antigen (Sino Biological, Inc.); test: ELISA, coated CEACAM1 100 ng/well, antibody 4.57 ng/ml
Experimental: as §1, §2

[9] = biological target: T2, Antigen CD66c (CEACAM6; Sino …); test: ELISA, coated CEACAM6 100 ng/well, antibody 123.46 ng/ml
Experimental: as §1, §2

[10] = biological target: T2, Antigen CD66c (CEACAM6; Sino …); test: ELISA, coated CEACAM6 100 ng/well, antibody 370.37 ng/ml
Experimental: as §1, §2

[11] = biological target: T1, CEACAM1 antigen (Sino Biological, Inc.); test: ELISA, coated CEACAM1 100 ng/well, antibody 13.72 ng/ml
Experimental: as §1, §2

[12] = biological target: T2, Antigen CD66c (CEACAM6; Sino …); test: ELISA, coated CEACAM6 100 ng/well, antibody 10000.00 ng/ml
Experimental: as §1, §2

[13] = biological target: T3, CD66c (CEACAM6) on CD66c-positive A549 …; test: flow cytometry on A549 cells, relative to chimeric antibody
Experimental: as §3, §4

[14] = biological target: T2, Antigen CD66c (CEACAM6; Sino …); test: ELISA, coated CEACAM6 100 ng/well, antibody 1.52 ng/ml
Experimental: as §1, §2

Binder | OD 450 nm [1] [OD] | OD 450 nm [2] [OD] | OD 450 nm [3] [OD] | OD 450 nm [4] [OD] | OD 450 nm [5] [OD] | % gated [6] [%] | OD 450 nm [7] [OD] | OD 450 nm [8] [OD] | OD 450 nm [9] [OD] | OD 450 nm [10] [OD] | OD 450 nm [11] [OD] | OD 450 nm [12] [OD] | % (% gated × mean) [13] [%] | OD 450 nm [14] [OD]
B1 | 0.05 | 0.19 | 0.07 | 0.38 | 3.18 | 72 | 0.31 | 0.05 | 2.22 | 2.8 | 0.05 | 2.87 | 103 | 0.53
B2 | 0.18 | 1.06 | 0.82 | 0.64 | 3.24 | 71 | 1.15 | 0.27 | 2.9 | 3.16 | 0.46 | 3.37 | 88.8 | 0.79
B3 | 0.05 | 0.21 | 0.1 | 0.36 | 3.27 | 71 | 0.27 | 0.05 | 2.56 | 3.08 | 0.06 | 3.43 | 96 | 0.48
B4 | 0.16 | 1.17 | 0.7 | 0.49 | 2.95 | 69 | 1.22 | 0.27 | 2.29 | 2.92 | 0.43 | 2.73 | 105 | 0.7
B5 | 0.16 | 1.21 | 0.95 | 0.41 | 3.41 | 73 | 1.24 | 0.28 | 2.83 | 3.3 | 0.51 | 3.17 | 100 | 0.53
